From ChEMBL document CHEMBL1135258, “Substrate spectrum of tyrocidine thioesterase probed with randomized peptide N-acetylcysteamine thioesters” (Bioorg Med Chem Lett, 2002)

Assays:
Conditions in all cases: Brevibacillus brevis
[1] = substrate: CC(=O)NCCSC(=O)[C@H](CC(C)C)NC(=O)[C@H](CCCN)NC(=O)[C@H](CCCN=C(N)N)NC(=O)[C@H](Cc1ccc(O)cc1)NC(=O)[C@H](CCC(N)=O)NC(=O)[C@H](CC(N)=O)NC(=O)[C@@H](Cc1ccccc1)NC(=O)[C@H](Cc1ccccc1)NC(=O)[C@@H]1CCCN1C(=O)[C@H](N)Cc1ccccc1; assay: (§1) Apparent kinetic constant (Km) determined for tyrocidine thioesterase amplified from Bacillus brevis (ATCC8185)
[2] = substrate: CC(=O)NCCSC(=O)[C@H](CC(C)C)NC(=O)[C@H](CCCN)NC(=O)[C@@H](NC(=O)[C@H](Cc1ccc(O)cc1)NC(=O)[C@H](CCC(N)=O)NC(=O)[C@H](CC(N)=O)NC(=O)[C@@H](NC(=O)[C@H](Cc1ccccc1)NC(=O)[C@@H]1CCCN1C(=O)[C@H](N)Cc1ccccc1)[C@@H](C)O)C(C)C; assay: as §1
[3] = substrate: CC(=O)NCCSC(=O)[C@H](CC(C)C)NC(=O)[C@H](CCCN)NC(=O)[C@@H](NC(=O)[C@H](Cc1ccc(O)cc1)NC(=O)[C@H](CCC(N)=O)NC(=O)[C@H](CC(N)=O)NC(=O)[C@@H](Cc1ccccc1)NC(=O)[C@H](Cc1ccccc1)NC(=O)[C@H](CC(=O)O)NC(=O)[C@H](N)Cc1ccccc1)C(C)C; assay: as §1
[4] = substrate: CC(=O)NCCSC(=O)[C@H](CC(C)C)NC(=O)[C@H](CCCN)NC(=O)[C@@H](NC(=O)[C@H](Cc1ccc(O)cc1)NC(=O)[C@H](CCC(N)=O)NC(=O)[C@H](CC(N)=O)NC(=O)[C@H](CS)NC(=O)[C@H](Cc1ccccc1)NC(=O)[C@@H]1CCCN1C(=O)[C@H](N)Cc1ccccc1)C(C)C; assay: as §1
[5] = substrate: CC(=O)NCCSC(=O)[C@H](CC(C)C)NC(=O)[C@H](CCCN)NC(=O)[C@@H](NC(=O)[C@H](CC(N)=O)NC(=O)[C@H](CCC(N)=O)NC(=O)[C@H](CC(N)=O)NC(=O)[C@@H](Cc1ccccc1)NC(=O)[C@H](Cc1ccccc1)NC(=O)[C@@H]1CCCN1C(=O)[C@H](N)Cc1ccccc1)C(C)C; assay: as §1

B1: Thioesterase GrsT homolog tycF (Brevibacillus brevis), O30412 (protein)
chain: MKLFCFPYAGGLPGIYYSWKSRLPPTFLEIDAFEVRPHIPQPNRDVFLPTSFYELLEDVCDRITPALTETPFAFFGHSMGGLVAFELTRKLMQKGAPLPQHLFLSASRAPHAYGKLAKTYNLPHDEFVEALRKLGGTPDDVLENQELLELFLPILRADFQAVQTYEMNPDLPRQVPVNMTVLYGTEDTIALEDIWAWRDYCQGACQFFPVSGGHFFIHHQTSPILEIIQNVLKEEKTVAIHSSF
[1]
  Km: 33 µM
[2]
  Km: 31 µM
[3]
  Km: 96 µM
[4]
  Km: 27 µM
[5]
  Km: 7.6 µM
